Experimental data from patent US20180155451A1 (published 2018).

B1: GpH7-B3 variant S337_04F/GpL16-k0 (antibody, human IgG1, kappa)
heavy: not shown
light: DIVMTQSPLSLPVTPGEPASISCQASESLVHSNRNTYLHWYLQKPGQSPQLLIYKVSNRFSGVPDRFSGSGSGTDFTLKISRVEAEDVGVYYCSQNTHVPPTFGQGTKVEIERTVAAPSVFIFPPSDEQLKSGTASVVCLLNNFYPREAKVQWKVDNALQSGNSQESVTEQDSKDSTYSLSSTLTLSKADYEKHKVYACEVTHQGLSSPVTKSFNRGEC
notes: also called Ho Ab S337_04F
B2: GpH7-B3 variant S267_09D/GpL16-k0 (antibody, human IgG1, kappa)
heavy: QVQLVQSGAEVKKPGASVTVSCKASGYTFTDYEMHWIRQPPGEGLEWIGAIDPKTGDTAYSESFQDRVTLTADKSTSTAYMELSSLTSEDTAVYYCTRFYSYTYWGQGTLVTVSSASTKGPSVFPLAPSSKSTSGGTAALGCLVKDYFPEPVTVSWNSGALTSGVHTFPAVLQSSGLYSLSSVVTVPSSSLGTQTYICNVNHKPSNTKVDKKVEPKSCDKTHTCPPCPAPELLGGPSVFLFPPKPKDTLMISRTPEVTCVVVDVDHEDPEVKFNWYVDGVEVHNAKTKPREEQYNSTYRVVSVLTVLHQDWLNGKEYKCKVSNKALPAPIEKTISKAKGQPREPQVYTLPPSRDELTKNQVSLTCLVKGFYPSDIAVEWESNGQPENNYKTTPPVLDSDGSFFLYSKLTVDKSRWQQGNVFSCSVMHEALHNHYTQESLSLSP
light: B1 light
notes: also called Ho Ab S267_09D
B3: GpH7-B3 variant P238_09D/GpL16-k0 (antibody, human IgG1, kappa)
heavy: not shown
light: B1 light
notes: also called Ho Ab P238_09D
B4: GpH7-B3 variant A330_07I/GpL16-k0 (antibody, human IgG1, kappa)
heavy: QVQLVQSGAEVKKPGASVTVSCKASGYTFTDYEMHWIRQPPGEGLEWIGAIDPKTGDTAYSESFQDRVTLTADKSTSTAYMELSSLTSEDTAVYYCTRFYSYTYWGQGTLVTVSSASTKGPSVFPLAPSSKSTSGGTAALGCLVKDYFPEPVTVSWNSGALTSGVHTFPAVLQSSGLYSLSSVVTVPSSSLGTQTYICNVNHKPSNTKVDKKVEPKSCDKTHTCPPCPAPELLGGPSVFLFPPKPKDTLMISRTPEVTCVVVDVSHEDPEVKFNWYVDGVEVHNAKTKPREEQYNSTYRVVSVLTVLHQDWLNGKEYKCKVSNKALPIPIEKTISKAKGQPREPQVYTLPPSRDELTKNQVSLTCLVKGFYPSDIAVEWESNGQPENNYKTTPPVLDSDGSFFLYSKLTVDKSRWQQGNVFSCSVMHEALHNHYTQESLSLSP
light: B1 light
notes: also called Ho Ab A330_07I
B5: GpH7-B3 variant G236_15Y/GpL16-k0 (antibody, human IgG1, kappa)
heavy: not shown
light: B1 light
notes: also called Ho Ab G236_15Y
B6: GpH7-B3 variant I332_01G/GpL16-k0 (antibody, human IgG1, kappa)
heavy: not shown
light: B1 light
notes: also called Ho Ab I332_01G
B7: GpH7-B3 variant P238_10E/GpL16-k0 (antibody, human IgG1, kappa)
heavy: not shown
light: B1 light
notes: also called Ho Ab P238_10E
B8: GpH7-B3 variant E333_13S/GpL16-k0 (antibody, human IgG1, kappa)
heavy: not shown
light: B1 light
notes: also called Ho Ab E333_13S
B9: GpH7-B3 variant S324_15Y/GpL16-k0 (antibody, human IgG1, kappa)
heavy: not shown
light: B1 light
notes: also called Ho Ab S324_15Y
B10: GpH7-B3 variant K334_09D/GpL16-k0 (antibody, human IgG1, kappa)
heavy: not shown
light: B1 light
notes: also called Ho Ab K334_09D
B11: GpH7-B3 variant I336_02A/GpL16-k0 (antibody, human IgG1, kappa)
heavy: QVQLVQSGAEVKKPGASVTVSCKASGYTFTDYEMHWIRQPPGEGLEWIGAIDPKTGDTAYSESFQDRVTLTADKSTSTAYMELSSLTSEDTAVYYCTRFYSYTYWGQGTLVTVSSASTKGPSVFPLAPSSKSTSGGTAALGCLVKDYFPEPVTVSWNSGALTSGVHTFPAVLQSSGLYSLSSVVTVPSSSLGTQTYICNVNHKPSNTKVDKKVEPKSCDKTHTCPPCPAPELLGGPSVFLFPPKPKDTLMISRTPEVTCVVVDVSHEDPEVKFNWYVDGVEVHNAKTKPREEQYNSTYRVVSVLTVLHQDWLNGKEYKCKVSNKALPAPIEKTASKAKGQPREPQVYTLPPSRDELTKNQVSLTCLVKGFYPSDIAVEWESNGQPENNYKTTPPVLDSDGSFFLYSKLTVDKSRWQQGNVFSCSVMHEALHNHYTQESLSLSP
light: B1 light
notes: also called Ho Ab I336_02A
B12: GpH7-B3 variant A330_05P/GpL16-k0 (antibody, human IgG1, kappa)
heavy: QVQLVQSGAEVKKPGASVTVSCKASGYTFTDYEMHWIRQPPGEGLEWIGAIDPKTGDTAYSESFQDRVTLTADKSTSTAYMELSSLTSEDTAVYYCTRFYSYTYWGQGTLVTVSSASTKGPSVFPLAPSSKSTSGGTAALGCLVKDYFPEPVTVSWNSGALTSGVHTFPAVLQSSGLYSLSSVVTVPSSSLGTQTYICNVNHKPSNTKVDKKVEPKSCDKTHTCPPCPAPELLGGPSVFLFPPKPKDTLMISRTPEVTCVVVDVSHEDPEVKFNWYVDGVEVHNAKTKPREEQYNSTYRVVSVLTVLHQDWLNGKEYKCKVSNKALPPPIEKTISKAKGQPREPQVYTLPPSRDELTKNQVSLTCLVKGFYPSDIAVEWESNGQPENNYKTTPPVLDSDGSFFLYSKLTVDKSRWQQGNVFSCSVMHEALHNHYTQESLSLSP
light: B1 light
notes: also called Ho Ab A330_05P
B13: GpH7-B3 variant L234_07I/GpL16-k0 (antibody, human IgG1, kappa)
heavy: not shown
light: B1 light
notes: also called Ho Ab L234_07I
B14: GpH7-B3 variant H268_18N/GpL16-k0 (antibody, human IgG1, kappa)
heavy: not shown
light: B1 light
notes: also called Ho Ab H268_18N
B15: GpH7-B3 variant I336_08L/GpL16-k0 (antibody, human IgG1, kappa)
heavy: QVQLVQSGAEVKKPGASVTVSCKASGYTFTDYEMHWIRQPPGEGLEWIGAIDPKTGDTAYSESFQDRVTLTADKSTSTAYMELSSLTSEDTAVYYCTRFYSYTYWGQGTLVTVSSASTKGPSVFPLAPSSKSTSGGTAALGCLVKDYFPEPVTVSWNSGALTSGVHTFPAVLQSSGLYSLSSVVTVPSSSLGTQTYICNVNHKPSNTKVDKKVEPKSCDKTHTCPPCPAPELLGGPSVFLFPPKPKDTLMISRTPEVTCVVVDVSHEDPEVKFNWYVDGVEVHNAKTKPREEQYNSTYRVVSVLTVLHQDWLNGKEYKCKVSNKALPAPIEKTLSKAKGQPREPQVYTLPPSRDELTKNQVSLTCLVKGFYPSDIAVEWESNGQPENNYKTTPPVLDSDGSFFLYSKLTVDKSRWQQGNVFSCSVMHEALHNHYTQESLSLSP
light: B1 light
notes: also called Ho Ab I336_08L
B16: GpH7-B3 variant K326_08L/GpL16-k0 (antibody, human IgG1, kappa)
heavy: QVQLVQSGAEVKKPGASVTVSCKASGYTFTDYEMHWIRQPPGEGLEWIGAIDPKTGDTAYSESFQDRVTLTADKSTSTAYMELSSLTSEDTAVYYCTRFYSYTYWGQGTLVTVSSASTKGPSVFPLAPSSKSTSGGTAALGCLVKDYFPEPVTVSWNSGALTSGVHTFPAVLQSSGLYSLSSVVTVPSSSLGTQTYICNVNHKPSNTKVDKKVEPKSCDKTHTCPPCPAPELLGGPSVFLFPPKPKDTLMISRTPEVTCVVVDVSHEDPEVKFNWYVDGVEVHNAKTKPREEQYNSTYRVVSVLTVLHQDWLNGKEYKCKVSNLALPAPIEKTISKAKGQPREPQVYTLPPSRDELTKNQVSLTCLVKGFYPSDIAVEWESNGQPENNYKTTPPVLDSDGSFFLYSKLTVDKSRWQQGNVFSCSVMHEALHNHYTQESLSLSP
light: B1 light
notes: also called Ho Ab K326_08L
B17: GpH7-B3 variant E333_03V/GpL16-k0 (antibody, human IgG1, kappa)
heavy: not shown
light: B1 light
notes: also called Ho Ab E333_03V
B18: GpH7-B3 variant S298_14T/GpL16-k0 (antibody, human IgG1, kappa)
heavy: not shown
light: B1 light
notes: also called Ho Ab S298_14T
B19: GpH7-B3 variant E333_04F/GpL16-k0 (antibody, human IgG1, kappa)
heavy: not shown
light: B1 light
notes: also called Ho Ab E333_04F
B20: GpH7-B3 variant I332_06M/GpL16-k0 (antibody, human IgG1, kappa)
heavy: not shown
light: B1 light
notes: also called Ho Ab I332_06M
B21: GpH7-B3 variant S324_02A/GpL16-k0 (antibody, human IgG1, kappa)
heavy: not shown
light: B1 light
notes: also called Ho Ab S324_02A
B22: GpH7-B3 variant I336_03V/GpL16-k0 (antibody, human IgG1, kappa)
heavy: not shown
light: B1 light
notes: also called Ho Ab I336_03V
B23: GpH7-B3 variant E333_09D/GpL16-k0 (antibody, human IgG1, kappa)
heavy: not shown
light: B1 light
notes: also called Ho Ab E333_09D
B24: GpH7-B3 variant H268_02A/GpL16-k0 (antibody, human IgG1, kappa)
heavy: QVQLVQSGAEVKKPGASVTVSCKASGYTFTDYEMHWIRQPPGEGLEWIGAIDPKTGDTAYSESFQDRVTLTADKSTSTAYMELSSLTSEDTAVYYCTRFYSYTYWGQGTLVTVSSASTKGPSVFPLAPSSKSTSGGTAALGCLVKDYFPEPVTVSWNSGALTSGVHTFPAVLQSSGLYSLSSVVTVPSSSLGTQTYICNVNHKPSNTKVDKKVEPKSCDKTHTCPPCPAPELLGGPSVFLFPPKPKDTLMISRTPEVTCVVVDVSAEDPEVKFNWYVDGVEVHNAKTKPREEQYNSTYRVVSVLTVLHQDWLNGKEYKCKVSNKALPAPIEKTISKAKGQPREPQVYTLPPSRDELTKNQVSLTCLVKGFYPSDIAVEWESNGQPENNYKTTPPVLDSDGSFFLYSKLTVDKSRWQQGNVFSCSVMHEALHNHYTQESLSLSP
light: B1 light
notes: also called Ho Ab H268_02A
B25: GpH7-B3 variant Q295_14T/GpL16-k0 (antibody, human IgG1, kappa)
heavy: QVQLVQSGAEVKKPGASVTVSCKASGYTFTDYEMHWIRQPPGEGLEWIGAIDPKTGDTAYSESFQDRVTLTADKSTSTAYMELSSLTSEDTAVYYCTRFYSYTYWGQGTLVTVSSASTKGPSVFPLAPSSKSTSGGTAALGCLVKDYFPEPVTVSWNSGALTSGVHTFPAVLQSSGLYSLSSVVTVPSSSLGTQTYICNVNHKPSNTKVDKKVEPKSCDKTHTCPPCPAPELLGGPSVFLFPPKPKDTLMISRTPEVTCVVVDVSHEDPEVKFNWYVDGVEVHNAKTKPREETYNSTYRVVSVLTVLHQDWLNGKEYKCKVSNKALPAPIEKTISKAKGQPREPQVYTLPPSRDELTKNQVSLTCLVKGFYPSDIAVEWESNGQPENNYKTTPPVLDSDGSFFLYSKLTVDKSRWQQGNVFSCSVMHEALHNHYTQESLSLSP
light: B1 light
notes: also called Ho Ab Q295_14T
B26: GpH7-B3 variant K326_07I/GpL16-k0 (antibody, human IgG1, kappa)
heavy: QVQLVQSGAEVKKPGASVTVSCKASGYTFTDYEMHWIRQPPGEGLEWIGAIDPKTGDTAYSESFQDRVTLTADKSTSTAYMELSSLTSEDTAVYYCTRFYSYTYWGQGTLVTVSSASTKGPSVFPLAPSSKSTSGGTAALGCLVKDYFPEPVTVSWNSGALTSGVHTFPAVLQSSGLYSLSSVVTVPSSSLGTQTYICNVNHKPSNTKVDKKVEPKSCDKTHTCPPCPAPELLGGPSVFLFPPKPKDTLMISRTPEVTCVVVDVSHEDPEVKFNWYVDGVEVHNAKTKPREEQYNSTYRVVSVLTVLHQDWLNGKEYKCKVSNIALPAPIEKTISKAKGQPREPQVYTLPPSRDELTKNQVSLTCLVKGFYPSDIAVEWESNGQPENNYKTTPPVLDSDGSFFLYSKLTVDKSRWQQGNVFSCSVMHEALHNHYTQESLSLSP
light: B1 light
notes: also called Ho Ab K326_07I
B27: GpH7-B3 variant S267_02A/GpL16-k0 (antibody, human IgG1, kappa)
heavy: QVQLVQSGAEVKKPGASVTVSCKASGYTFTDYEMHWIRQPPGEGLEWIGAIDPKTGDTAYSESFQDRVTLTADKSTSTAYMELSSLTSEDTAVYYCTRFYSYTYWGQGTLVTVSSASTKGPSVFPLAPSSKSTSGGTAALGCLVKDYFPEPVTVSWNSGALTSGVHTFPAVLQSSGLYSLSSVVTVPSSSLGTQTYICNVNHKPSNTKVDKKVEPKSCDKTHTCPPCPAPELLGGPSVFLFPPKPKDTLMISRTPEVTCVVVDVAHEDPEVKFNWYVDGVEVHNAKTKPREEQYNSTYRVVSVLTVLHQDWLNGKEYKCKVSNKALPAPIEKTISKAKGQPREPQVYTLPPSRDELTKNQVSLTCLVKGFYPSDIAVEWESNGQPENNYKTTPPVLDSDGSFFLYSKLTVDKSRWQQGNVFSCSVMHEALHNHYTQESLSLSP
light: B1 light
notes: also called Ho Ab S267_02A
B28: GpH7-B3 variant L234_04F/GpL16-k0 (antibody, human IgG1, kappa)
heavy: not shown
light: B1 light
notes: also called Ho Ab L234_04F
B29: GpH7-B3 variant P271_01G/GpL16-k0 (antibody, human IgG1, kappa)
heavy: not shown
light: B1 light
notes: also called Ho Ab P271_01G
B30: GpH7-B3 variant I336_18N/GpL16-k0 (antibody, human IgG1, kappa)
heavy: not shown
light: B1 light
notes: also called Ho Ab I336_18N
B31: GpH7-B3 variant L234_20W/GpL16-k0 (antibody, human IgG1, kappa)
heavy: not shown
light: B1 light
notes: also called Ho Ab L234_20W
B32: GpH7-B3 variant I336_06M/GpL16-k0 (antibody, human IgG1, kappa)
heavy: not shown
light: B1 light
notes: also called Ho Ab I336_06M
B33: GpH7-B3 variant E333_02A/GpL16-k0 (antibody, human IgG1, kappa)
heavy: not shown
light: B1 light
notes: also called Ho Ab E333_02A
B34: GpH7-B3 variant K334_01G/GpL16-k0 (antibody, human IgG1, kappa)
heavy: not shown
light: B1 light
notes: also called Ho Ab K334_01G
B35: GpH7-B3 variant E333_20W/GpL16-k0 (antibody, human IgG1, kappa)
heavy: not shown
light: B1 light
notes: also called Ho Ab E333_20W
B36: GpH7-B3 variant S324_16H/GpL16-k0 (antibody, human IgG1, kappa)
heavy: not shown
light: B1 light
notes: also called Ho Ab S324_16H
B37: GpH7-A5/GpH7-B3 variant T335_01G/GpL16-k0 (antibody, human IgG1, kappa)
heavy 1: not shown
heavy 2: not shown
light: B1 light
notes: heterodimerized antibody, mutation in one H chain only; also called T335_01G He Ab
B38: GpH7-A5/GpH7-B3 variant T335_13S/GpL16-k0 (antibody, human IgG1, kappa)
heavy 1: not shown
heavy 2: not shown
light: B1 light
notes: heterodimerized antibody, mutation in one H chain only; also called T335_13S He Ab
B39: GpH7-A5/GpH7-B3 variant S337_11K/GpL16-k0 (antibody, human IgG1, kappa)
heavy 1: not shown
heavy 2: not shown
light: B1 light
notes: heterodimerized antibody, mutation in one H chain only; also called S337_11K He Ab
B40: GpH7-A5/GpH7-B3 variant Y300_07I/GpL16-k0 (antibody, human IgG1, kappa)
heavy 1: not shown
heavy 2: not shown
light: B1 light
notes: heterodimerized antibody, mutation in one H chain only; also called Y300_07I He Ab
B41: GpH7-A5/GpH7-B3 variant Y296_07I/GpL16-k0 (antibody, human IgG1, kappa)
heavy 1: not shown
heavy 2: not shown
light: B1 light
notes: heterodimerized antibody, mutation in one H chain only; also called Y296_07I He Ab
B42: GpH7-A5/GpH7-B3 variant S324_09D/GpL16-k0 (antibody, human IgG1, kappa)
heavy 1: not shown
heavy 2: not shown
light: B1 light
notes: heterodimerized antibody, mutation in one H chain only; also called S324_09D He Ab
B43: GpH7-A5/GpH7-B3 variant Y296_03V/GpL16-k0 (antibody, human IgG1, kappa)
heavy 1: not shown
heavy 2: not shown
light: B1 light
notes: heterodimerized antibody, mutation in one H chain only; also called Y296_03V He Ab
B44: GpH7-A5/GpH7-B3 variant S337_18N/GpL16-k0 (antibody, human IgG1, kappa)
heavy 1: not shown
heavy 2: not shown
light: B1 light
notes: heterodimerized antibody, mutation in one H chain only; also called S337_18N He Ab
B45: GpH7-A5/GpH7-B3 variant T335_02A/GpL16-k0 (antibody, human IgG1, kappa)
heavy 1: not shown
heavy 2: not shown
light: B1 light
notes: heterodimerized antibody, mutation in one H chain only; also called T335_02A He Ab
B46: GpH7-A5/GpH7-B3 variant S337_16H/GpL16-k0 (antibody, human IgG1, kappa)
heavy 1: not shown
heavy 2: not shown
light: B1 light
notes: heterodimerized antibody, mutation in one H chain only; also called S337_16H He Ab
B47: GpH7-A5/GpH7-B3 variant Y296_08L/GpL16-k0 (antibody, human IgG1, kappa)
heavy 1: not shown
heavy 2: not shown
light: B1 light
notes: heterodimerized antibody, mutation in one H chain only; also called Y296_08L He Ab
B48: GpH7-A5/GpH7-B3 variant S324_10E/GpL16-k0 (antibody, human IgG1, kappa)
heavy 1: not shown
heavy 2: not shown
light: B1 light
notes: heterodimerized antibody, mutation in one H chain only; also called S324_10E He Ab
B49: GpH7-A5/GpH7-B3 variant Y296_02A/GpL16-k0 (antibody, human IgG1, kappa)
heavy 1: not shown
heavy 2: not shown
light: B1 light
notes: heterodimerized antibody, mutation in one H chain only; also called Y296_02A He Ab
B50: GpH7-A5/GpH7-B3 variant S337_14T/GpL16-k0 (antibody, human IgG1, kappa)
heavy 1: not shown
heavy 2: not shown
light: B1 light
notes: heterodimerized antibody, mutation in one H chain only; also called S337_14T He Ab
B51: GpH7-A5/GpH7-B3 variant Y300_16H/GpL16-k0 (antibody, human IgG1, kappa)
heavy 1: not shown
heavy 2: not shown
light: B1 light
notes: heterodimerized antibody, mutation in one H chain only; also called Y300_16H He Ab

Target: T1, FcγRIIIa extracellular domain with C-terminal His tag (human, UniProt P08637 17-208)
T1 construct: extracellular domain; also called FcgRIIIa; 3a; not shown: His tag at the C terminus
Test: SPR relative binding; GpH7-B3/GpL16-k0 = 100
Procedure: Analysis of interaction between objective antibody and the FcγR was carried out using Biacore T100 (GE Healthcare). HBS-EP+ (GE Healthcare) was used as the running buffer, and the measurement temperature was set to 25° C. Chips produced by immobilizing the antigen peptide by the amine coupling method to a Series S Sencor Chip CM5 (GE Healthcare), or alternatively, chips produced by allowing preliminarily biotinylated antigen peptides to interact with and immobilize onto a Series S Sensor Chip SA (certified) (GE Healthcare) were used. Antibodies of interest were captured onto an antigen peptide-immobilized chip, and allowed to interact to each FcγR diluted with running buffer. To regenerate and repeatedly use the chip, the antibodies captured on the chip were washed off by reacting 10 mM glycine-HCl, pH 1.5.
The FcγR-binding activity of each antibody was assessed primarily using as an indicator the FcγR-binding activity and dissociation constant for FcγR.

T1 sequence (P08637 17-208): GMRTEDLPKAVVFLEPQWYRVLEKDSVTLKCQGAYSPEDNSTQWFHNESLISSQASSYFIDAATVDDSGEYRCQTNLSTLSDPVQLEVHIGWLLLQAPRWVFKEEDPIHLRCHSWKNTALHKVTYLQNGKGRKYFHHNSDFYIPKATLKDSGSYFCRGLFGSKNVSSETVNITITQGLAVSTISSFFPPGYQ

Binder | Ho/Con_3a
B1 | 95.6 % of control
B2 | 160 % of control
B3 | -0.1 % of control
B4 | 93 % of control
B5 | 41.6 % of control
B6 | 104 % of control
B7 | 0.8 % of control
B8 | 95.1 % of control
B9 | 100 % of control
B10 | 150 % of control
B11 | 104 % of control
B12 | 56.6 % of control
B13 | 98.2 % of control
B14 | 90.3 % of control
B15 | 95.8 % of control
B16 | 114 % of control
B17 | 86.5 % of control
B18 | 107 % of control

Binder | Ho/Con_3a
B19 | 87.1 % of control
B20 | 95.4 % of control
B21 | 99.8 % of control
B22 | 110 % of control
B23 | 109 % of control
B24 | 118 % of control
B25 | 108 % of control
B26 | 134 % of control
B27 | 145 % of control
B28 | 49.9 % of control
B29 | 88 % of control
B30 | 101 % of control
B31 | 37.1 % of control
B32 | 107 % of control
B33 | 93.3 % of control
B34 | 104 % of control
B35 | 90.9 % of control
B36 | 103 % of control

Target: T2, FcγRIa extracellular domain with C-terminal His tag (human, UniProt P12314 16-292)
T2 construct: extracellular domain; soluble analyte in Biacore; also called FcgRI; CD64
Test: SPR (Biacore), relative FcγRIa binding, GpH7-A5/GpH7-B3/GpL16-k0 (HeCon Ab) = 100

T2 sequence (P12314 16-292): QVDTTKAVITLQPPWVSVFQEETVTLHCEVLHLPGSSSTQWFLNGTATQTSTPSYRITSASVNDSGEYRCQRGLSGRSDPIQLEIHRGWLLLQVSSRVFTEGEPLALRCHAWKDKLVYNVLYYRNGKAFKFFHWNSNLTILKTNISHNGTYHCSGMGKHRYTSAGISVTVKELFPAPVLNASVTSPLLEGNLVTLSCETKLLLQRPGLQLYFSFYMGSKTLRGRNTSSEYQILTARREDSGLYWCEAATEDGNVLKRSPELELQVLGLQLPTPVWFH

Binder | He/Con_1a
B37 | 104 % of control
B38 | 105 % of control
B39 | 104 % of control
B40 | 108 % of control
B41 | 104 % of control
B42 | 104 % of control
B43 | 104 % of control
B44 | 105 % of control
B45 | 103 % of control
B46 | 105 % of control
B47 | 104 % of control
B48 | 105 % of control
B49 | 103 % of control
B50 | 105 % of control
B51 | 111 % of control
